Laboratory results taken from patent US20190276501.

Columns and labels:
[1] = target: T1, Ap-EncD60^TEVK138^TEV-His
T1 chain: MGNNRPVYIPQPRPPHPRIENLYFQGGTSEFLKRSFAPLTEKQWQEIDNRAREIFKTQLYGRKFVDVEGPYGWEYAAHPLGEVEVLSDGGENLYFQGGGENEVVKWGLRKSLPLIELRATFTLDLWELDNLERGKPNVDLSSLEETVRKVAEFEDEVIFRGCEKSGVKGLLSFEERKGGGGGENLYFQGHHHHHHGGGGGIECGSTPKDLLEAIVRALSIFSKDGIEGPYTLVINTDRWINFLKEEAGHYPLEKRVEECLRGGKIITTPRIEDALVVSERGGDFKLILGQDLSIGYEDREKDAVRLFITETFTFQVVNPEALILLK

[2] = target: T2, Ap-EncK138^TEV-His
T2 chain: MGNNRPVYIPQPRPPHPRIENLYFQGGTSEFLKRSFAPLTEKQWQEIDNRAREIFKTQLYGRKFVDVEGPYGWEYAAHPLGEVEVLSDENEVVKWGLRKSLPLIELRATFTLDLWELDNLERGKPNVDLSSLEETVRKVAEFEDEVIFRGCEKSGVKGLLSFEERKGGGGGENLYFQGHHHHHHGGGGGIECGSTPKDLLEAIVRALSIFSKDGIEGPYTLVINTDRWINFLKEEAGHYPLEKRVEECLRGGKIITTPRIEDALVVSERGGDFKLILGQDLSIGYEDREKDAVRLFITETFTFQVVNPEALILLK

[3] = target: T3, Ap-EncK71^TEVK138^TEV-His
T3 chain: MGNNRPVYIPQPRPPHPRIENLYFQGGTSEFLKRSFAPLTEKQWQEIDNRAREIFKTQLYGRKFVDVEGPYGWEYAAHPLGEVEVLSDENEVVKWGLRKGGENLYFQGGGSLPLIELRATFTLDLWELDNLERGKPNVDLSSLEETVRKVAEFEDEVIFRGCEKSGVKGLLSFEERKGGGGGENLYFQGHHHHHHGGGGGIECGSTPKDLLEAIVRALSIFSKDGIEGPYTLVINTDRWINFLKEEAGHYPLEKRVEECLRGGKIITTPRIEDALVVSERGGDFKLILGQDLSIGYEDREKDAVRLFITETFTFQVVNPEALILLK

[4] = target: T4, HB-EncD60^TEVK138^TEV-His with a GT linker between the TEV site and the N-terminus of Enc
T4 chain: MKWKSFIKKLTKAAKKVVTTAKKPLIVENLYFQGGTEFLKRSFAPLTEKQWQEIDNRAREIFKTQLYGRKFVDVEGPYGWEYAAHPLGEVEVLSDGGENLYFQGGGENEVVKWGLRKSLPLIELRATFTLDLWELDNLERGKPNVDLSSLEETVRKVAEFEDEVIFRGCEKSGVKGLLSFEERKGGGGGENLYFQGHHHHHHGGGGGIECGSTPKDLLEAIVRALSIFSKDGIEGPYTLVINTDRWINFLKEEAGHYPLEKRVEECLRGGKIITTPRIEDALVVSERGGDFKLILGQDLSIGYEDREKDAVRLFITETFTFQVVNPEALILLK

[5] = target: T5, HB-EncD60^TEVK138^TEV-His
T5 chain: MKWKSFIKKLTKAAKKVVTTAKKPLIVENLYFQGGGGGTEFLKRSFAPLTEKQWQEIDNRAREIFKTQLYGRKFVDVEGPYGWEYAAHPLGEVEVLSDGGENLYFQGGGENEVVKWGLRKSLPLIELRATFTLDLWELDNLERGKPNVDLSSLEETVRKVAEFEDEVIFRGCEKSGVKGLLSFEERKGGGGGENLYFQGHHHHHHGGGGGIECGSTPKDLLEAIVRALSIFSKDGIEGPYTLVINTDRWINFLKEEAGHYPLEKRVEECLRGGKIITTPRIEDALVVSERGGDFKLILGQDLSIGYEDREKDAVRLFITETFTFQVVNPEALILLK

[6] = target: T6, HB-EncK138^TEV-His with a GT linker between the TEV site and the N-terminus of Enc
T6 chain: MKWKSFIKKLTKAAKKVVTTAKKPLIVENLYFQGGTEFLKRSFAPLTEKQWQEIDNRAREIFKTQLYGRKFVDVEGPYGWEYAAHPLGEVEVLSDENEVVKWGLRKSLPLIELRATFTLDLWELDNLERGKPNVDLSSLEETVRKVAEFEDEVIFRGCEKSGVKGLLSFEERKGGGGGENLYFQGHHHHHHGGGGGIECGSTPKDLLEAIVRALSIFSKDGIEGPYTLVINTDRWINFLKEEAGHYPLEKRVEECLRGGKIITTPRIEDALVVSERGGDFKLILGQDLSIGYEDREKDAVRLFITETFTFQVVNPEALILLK

[7] = target: HB-EncK138^TEV-His, EncD60^TEVK138^TEV-His, and HB-EncV57^TEVK138^TEV-His
[8] = target: T7, HB-EncK138^TEV-His
T7 chain: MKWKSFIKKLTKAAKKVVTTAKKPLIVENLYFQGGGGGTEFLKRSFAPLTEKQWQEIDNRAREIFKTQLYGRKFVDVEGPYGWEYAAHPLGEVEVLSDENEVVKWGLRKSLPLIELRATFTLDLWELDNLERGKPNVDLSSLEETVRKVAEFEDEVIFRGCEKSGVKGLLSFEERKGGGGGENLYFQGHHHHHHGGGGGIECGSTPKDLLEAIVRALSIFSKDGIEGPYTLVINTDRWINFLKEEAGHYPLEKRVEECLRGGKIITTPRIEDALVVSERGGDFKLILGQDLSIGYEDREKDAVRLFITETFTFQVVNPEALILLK

[9] = target: T8, HB-EncV57^TEVK138^TEV-His with a GT linker between the TEV site and the N-terminus of Enc
T8 chain: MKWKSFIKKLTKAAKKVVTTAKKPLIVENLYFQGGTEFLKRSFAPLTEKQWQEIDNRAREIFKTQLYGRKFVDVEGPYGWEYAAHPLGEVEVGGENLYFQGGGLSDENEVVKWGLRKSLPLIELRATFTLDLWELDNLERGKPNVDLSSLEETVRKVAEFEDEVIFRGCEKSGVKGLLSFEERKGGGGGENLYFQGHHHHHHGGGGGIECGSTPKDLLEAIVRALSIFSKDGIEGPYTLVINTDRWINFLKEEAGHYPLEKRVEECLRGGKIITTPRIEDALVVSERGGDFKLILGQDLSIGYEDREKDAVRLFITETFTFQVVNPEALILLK

[10] = target: T9, HB-EncV57^TEVK138^TEV-His
T9 chain: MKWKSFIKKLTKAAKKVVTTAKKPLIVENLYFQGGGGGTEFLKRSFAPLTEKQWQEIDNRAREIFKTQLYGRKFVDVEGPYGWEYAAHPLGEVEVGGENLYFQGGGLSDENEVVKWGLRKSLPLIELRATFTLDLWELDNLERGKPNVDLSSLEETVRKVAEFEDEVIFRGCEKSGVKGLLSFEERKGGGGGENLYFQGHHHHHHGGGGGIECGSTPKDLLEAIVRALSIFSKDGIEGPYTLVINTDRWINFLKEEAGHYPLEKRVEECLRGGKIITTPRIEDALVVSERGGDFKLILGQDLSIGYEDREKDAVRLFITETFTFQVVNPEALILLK

B1: TEV protease (protein)
chain: GESLFKGPRDYNPISSTICHLTNESDGHTTSLYGIGFGPFIITNKHLFRRNNGTLLVQSLHGVFKVKNTTTLQQHLIDGRDMIIIRMPKDFPPFPQKLKFREPQREERICLVTTNFQTKSMSSMVSDTSCTFPSSDGIFWKHWIQTKDGQCGSPLVSTRDGFIVGIHSASNFTNTNNYFTSVPKNFMELLTNQEAQQWVSGWRLNADSVLWGGHKVFMSKPEEPFQPVKEATQLMNELVYSQ
TEV protease digestion, SDS-PAGE and anti-TEV site Western blot (up to 20 h at 30 C) [1]: not well digested by TEV protease
TEV protease digestion, SDS-PAGE and anti-TEV site Western blot (up to 20 h at 30 C) [2]: not well digested by TEV protease
TEV protease digestion, SDS-PAGE and anti-TEV site Western blot (up to 20 h at 30 C) [3]: construct 125 (Ap-Encap(K71, K138)) is digested by TEV protease to near completion
release of HB peptide after TEV protease digestion (SDS-PAGE) [4]: did not result in detectable release of HB peptide by SDS-PAGE
release of HBCM2 peptide after TEV protease digestion (densitometry) [5]: released fewer peptide per fusion protein
release of HBCM2 peptide after TEV protease digestion (overnight, 4 C; Tris-Tricine gel) [5]: All constructs were found to at least partially release HBCM2 peptide
release of HB peptide after TEV protease digestion (SDS-PAGE) [6]: did not result in detectable release of HB peptide by SDS-PAGE
relative HB/HB-Enc ratio (densitometry after TEV protease digestion) [7]: a relative HB/HB-Enc ratio of 0.26 to 0.56
release of HBCM2 peptide after TEV protease digestion (densitometry) [8]: released fewer peptide per fusion protein
release of HBCM2 peptide after TEV protease digestion (overnight, 4 C; Tris-Tricine gel) [8]: All constructs were found to at least partially release HBCM2 peptide
release of HB peptide after TEV protease digestion (SDS-PAGE) [9]: did not result in detectable release of HB peptide by SDS-PAGE
release of HBCM2 peptide after TEV protease digestion (densitometry) [10]: released fewer peptide per fusion protein
release of HBCM2 peptide after TEV protease digestion (overnight, 4 C; Tris-Tricine gel) [10]: All constructs were found to at least partially release HBCM2 peptide
